The record followed here is the RNAGym collection of RNA variant scans (doi:10.1093/molbev/msab373).

To fix the notation:
B1: Azoarcus group I ribozyme (parent)
chain: GUGCCUUGCGCCGGGAAACCACGCAAGGGAUGGUGUCAAAUUCGGCGAAACCUAAGCGCCCGCCCGGGCGUAUGGCAACGCCGAGCCAAGCUUCGGCGCCUGCGCCGAUGAAGGUGUAGAGACUAGACGGCACCCACCUAAGGCAAACGCUAUGGUGAAGGCAUAGUCCAGGGAGUGGCGAAAGUCACACAAACCGG

The variants in this data set derive from B1. Nature of the data set: reverse-splicing fitness (ratio to wild type); higher = more active; in vitro selection; Mg2+ level not given. The procedure, abridged:
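An in vitro group I ribozyme library with randomized positions was T7-transcribed and gel-purified. In triplicate, 10 pmol RNA in EPPS pH 7.5 was reacted with 50 pmoles of a 30-nt RNA substrate for 1 h at 37 °C across several added MgCl2 levels (1–48 mM), then stopped with EDTA. Products were reverse transcribed from a substrate-complementary primer, PCR-amplified and sequenced (HiSeq 4000). Fitness is a variant's read proportion after selection over that before, normalised to wild type.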
Regarding GUGCCUUGCGCCGGGAAACCACGCAAGGGAUGGUGUCAAAUUCGGCGAAACCUAAGCGCCCGCCCGGGCGUAUGGCAACGCGGAGCCAAGCUUCGGCGCCUGCGCCGAUGCAGGUGUAGGGACUAGACGGCACCCACCUAAGGCGAACGUUAUGGUGAAGGCAUAGUCAAGGGAGUGGCGAAAGUCACACAAACCGG, the reverse-splicing fitness was 0.0112. In the case of GUGCCUUGCGCCGGGAAACCACGCAAGGGAUGGUGUCAAAUUCGGCGAAACCUAAGCGCCCGCCCGGGCGUAUGGCAACGCGGAGCCAAGCUUCGGCGCCUGCGCCGAUGCAGGUGUAGGGACUAGACGGCACCCACCUAAGGCGAACGAUAUGGUGAAGGCAUAGUCUAGGGAGUGGCGAAAGUCACACAAACCGG it was 0.00904. With GUGCCUUGCGCCGGGAAACCACGCAAGGGAUGGUGUCAAAUUCGGCGAAACCUAAGCGCCCGCCCGGGCGUAUGGCAACGCGGAGCCAAGCUUCGGCGCCUGCGCCGAUGCAGGUGUAGGGACUAGACGGCACCCACCUAAGGCGAACGGUAUGGUGAAGGCAUAGUCUAGGGAGUGGCGAAAGUCACACAAACCGG, the reverse-splicing fitness was determined as 0.00859.

Regarding GUGCCUUGCGCCGGGAAACCACGCAAGGGAUGGUGUCAAAUUCGGCGAAACCUAAGCGCCCGCCCGGGCGUAUGGCAACGCGGAGCCAAGCUUCGGCGCCUGCGCCGAUGCAGGUGUAGGGACUAGACGGCACCCACCUAAGGCGAACGGUAUGGUGAAGGCAUAGUCAAGGGAGUGGCGAAAGUCACACAAACCGG, the reverse-splicing fitness was 0.009. Consider GUGCCUUGCGCCGGGAAACCACGCAAGGGAUGGUGUCAAAUUCGGCGAAACCUAAGCGCCCGCCCGGGCGUAUGGCAACGCGGAGCCAAGCUUCGGCGCCUGCGCCGAUGCAGGUGUAGGGACUAGACGGCACCCACCUAAGGCGAACGGUAUGGUGAAGGCAUAGUCGAGGGAGUGGCGAAAGUCACACAAACCGG, for which the reverse-splicing fitness came to 0.00765.

Take GUGCCUUGCGCCGGGAAACCACGCAAGGGAUGGUGUCAAAUUCGGCGAAACCUAAGCGCCCGCCCGGGCGUAUGGCAACGCGGAGCCAAGCUUCGGCGCCUGCGCCGAUGCAGGUGUAGGGACUAGACGGCACCCACCUAAGGCGAACGGUAUGGUGAAGGCAUAGUCGAGGGAGCGGCGAAAGUCACACAAACCGG: the reverse-splicing fitness amounted to 0.0123. In the case of GUGCCUUGCGCCGGGAAACCACGCAAGGGAUGGUGUCAAAUUCGGCGAAACCUAAGCGCCCGCCCGGGCGUAUGGCAACGCGGAGCCAAGCUUCGGCGCCUGCGCCGAUGCAGGUGUAGGGACUAGACGGCACCCACCUAAGGCGAACGGUAUGGUGAAGGCAUAGUCGAGGGAGGGGCGAAAGUCACACAAACCGG it was 0.00591; in that of GUGCCUUGCGCCGGGAAACCACGCAAGGGAUGGUGUCAAAUUCGGCGAAACCUAAGCGCCCGCCCGGGCGUAUGGCAACGCGGAGCCAAGCUUCGGCGCCUGCGCCGAUGCAGGUGUAGGGACUAGACGGCACCCACCUAAGGCGAACGGUAUGGUGAAGGCAUAGUCGAGGGAGAGGCGAAAGUCACACAAACCGG, 0.0101.

Regarding GUGCCUUGCGCCGGGAAACCACGCAAGGGAUGGUGUCAAAUUCGGCGAAACCUAAGCGCCCGCCCGGGCGUAUGGCAACGCGGAGCCAAGCUUCGGCGCCUGCGCCGAUGCAGGUGUAGGGACUAGACGGCACCCACCUAAGGCGAACGUUAUGGUGAAGGCAUAGUCAAGGGAGCGGCGAAAGUCACACAAACCGG, the reverse-splicing fitness came out at 0.0147. In the case of GUGCCUUGCGCCGGGAAACCACGCAAGGGAUGGUGUCAAAUUCGGCGAAACCUAAGCGCCCGCCCGGGCGUAUGGCAACGCGGAGCCAAGCUUCGGCGCCUGCGCCGAUGCAGGUGUAGGGACUAGACGGCACCCACCUAAGGCGAACGUUAUGGUGAAGGCAUAGUCAAGGGAGAGGCGAAAGUCACACAAACCGG it was 0.0152. For GUGCCUUGCGCCGGGAAACCACGCAAGGGAUGGUGUCAAAUUCGGCGAAACCUAAGCGCCCGCCCGGGCGUAUGGCAACGCGGAGCCAAGCUUCGGCGCCUGCGCCGAUGCAGGUGUAGGGACUAGACGGCACCCACCUAAGGCGAACGAUAUGGUGAAGGCAUAGUCCAGGGAGAGGCGAAAGUCACACAAACCGG, the reverse-splicing fitness is 0.00974. In the case of GUGCCUUGCGCCGGGAAACCACGCAAGGGAUGGUGUCAAAUUCGGCGAAACCUAAGCGCCCGCCCGGGCGUAUGGCAACGCGGAGCCAAGCUUCGGCGCCUGCGCCGAUGCAGGUGUAGGGACUAGACGGCACCCACCUAAGGCGAACGAUAUGGUGAAGGCAUAGUCCAGGGAGGGGCGAAAGUCACACAAACCGG it was 0.007; in that of GUGCCUUGCGCCGGGAAACCACGCAAGGGAUGGUGUCAAAUUCGGCGAAACCUAAGCGCCCGCCCGGGCGUAUGGCAACGCGGAGCCAAGCUUCGGCGCCUGCGCCGAUGCAGGUGUAGGGACUAGACGGCACCCACCUAAGGCGAACGAUAUGGUGAAGGCAUAGUCCAGGGAGCGGCGAAAGUCACACAAACCGG, 0.0185; in that of GUGCCUUGCGCCGGGAAACCACGCAAGGGAUGGUGUCAAAUUCGGCGAAACCUAAGCGCCCGCCCGGGCGUAUGGCAACGCGGAGCCAAGCUUCGGCGCCUGCGCCGAUGCAGGUGUAGGGACUAGACGGCACCCACCUAAGGCGAACGAUAUGGUGAAGGCAUAGUCGAGGGAGAGGCGAAAGUCACACAAACCGG, 0.0158. In the case of GUGCCUUGCGCCGGGAAACCACGCAAGGGAUGGUGUCAAAUUCGGCGAAACCUAAGCGCCCGCCCGGGCGUAUGGCAACGCGGAGCCAAGCUUCGGCGCCUGCGCCGAUGCAGGUGUAGGGACUAGACGGCACCCACCUAAGGCGAACGAUAUGGUGAAGGCAUAGUCGAGGGAGGGGCGAAAGUCACACAAACCGG, the reverse-splicing fitness came to 0.0058. Take GUGCCUUGCGCCGGGAAACCACGCAAGGGAUGGUGUCAAAUUCGGCGAAACCUAAGCGCCCGCCCGGGCGUAUGGCAACGCGGAGCCAAGCUUCGGCGCCUGCGCCGAUGCAGGUGUAGGGACUAGACGGCACCCACCUAAGGCGAACGAUAUGGUGAAGGCAUAGUCGAGGGAGCGGCGAAAGUCACACAAACCGG: the reverse-splicing fitness is 0.0267. Turning to GUGCCUUGCGCCGGGAAACCACGCAAGGGAUGGUGUCAAAUUCGGCGAAACCUAAGCGCCCGCCCGGGCGUAUGGCAACGCGGAGCCAAGCUUCGGCGCCUGCGCCGAUGCAGGUGUAGGGACUAGACGGCACCCACCUAAGGCGAACGGUAUGGUGAAGGCAUAGUCAAGGGAGCGGCGAAAGUCACACAAACCGG, the reverse-splicing fitness amounted to 0.0135. Take GUGCCUUGCGCCGGGAAACCACGCAAGGGAUGGUGUCAAAUUCGGCGAAACCUAAGCGCCCGCCCGGGCGUAUGGCAACGCGGAGCCAAGCUUCGGCGCCUGCGCCGAUGCAGGUGUAGGGACUAGACGGCACCCACCUAAGGCGAACGGUAUGGUGAAGGCAUAGUCAAGGGAGGGGCGAAAGUCACACAAACCGG: the reverse-splicing fitness was 0.00843. Next, GUGCCUUGCGCCGGGAAACCACGCAAGGGAUGGUGUCAAAUUCGGCGAAACCUAAGCGCCCGCCCGGGCGUAUGGCAACGCGGAGCCAAGCUUCGGCGCCUGCGCCGAUGCAGGUGUAGGGACUAGACGGCACCCACCUAAGGCGAACGGUAUGGUGAAGGCAUAGUCAAGGGAGAGGCGAAAGUCACACAAACCGG: 0.0144; GUGCCUUGCGCCGGGAAACCACGCAAGGGAUGGUGUCAAAUUCGGCGAAACCUAAGCGCCCGCCCGGGCGUAUGGCAACGCGGAGCCAAGCUUCGGCGCCUGCGCCGAUGCAGGUGUAGGGACUAGACGGCACCCACCUAAGGCGAACGAUAUGGUGAAGGCAUAGUCUAGGGAGGGGCGAAAGUCACACAAACCGG: 0.00638. In the case of GUGCCUUGCGCCGGGAAACCACGCAAGGGAUGGUGUCAAAUUCGGCGAAACCUAAGCGCCCGCCCGGGCGUAUGGCAACGCGGAGCCAAGCUUCGGCGCCUGCGCCGAUGCAGGUGUAGGGACUAGACGGCACCCACCUAAGGCGAACGAUAUGGUGAAGGCAUAGUCUAGGGAGAGGCGAAAGUCACACAAACCGG it was 0.014. On to GUGCCUUGCGCCGGGAAACCACGCAAGGGAUGGUGUCAAAUUCGGCGAAACCUAAGCGCCCGCCCGGGCGUAUGGCAACGCGGAGCCAAGCUUCGGCGCCUGCGCCGAUGCAGGUGUAGGGACUAGACGGCACCCACCUAAGGCGAACGAUAUGGUGAAGGCAUAGUCUAGGGAGCGGCGAAAGUCACACAAACCGG, for which the reverse-splicing fitness worked out at 0.0159. Regarding GUGCCUUGCGCCGGGAAACCACGCAAGGGAUGGUGUCAAAUUCGGCGAAACCUAAGCGCCCGCCCGGGCGUAUGGCAACGCGGAGCCAAGCUUCGGCGCCUGCGCCGAUGCAGGUGUAGGGACUAGACGGCACCCACCUAAGGCGAACGGUAUGGUGAAGGCAUAGUCCAGGGAGCGGCGAAAGUCACACAAACCGG, the reverse-splicing fitness came out at 0.0113. For the variant GUGCCUUGCGCCGGGAAACCACGCAAGGGAUGGUGUCAAAUUCGGCGAAACCUAAGCGCCCGCCCGGGCGUAUGGCAACGCGGAGCCAAGCUUCGGCGCCUGCGCCGAUGCAGGUGUAGGGACUAGACGGCACCCACCUAAGGCGAACGGUAUGGUGAAGGCAUAGUCCAGGGAGAGGCGAAAGUCACACAAACCGG, the reverse-splicing fitness stood at 0.00732. Next, GUGCCUUGCGCCGGGAAACCACGCAAGGGAUGGUGUCAAAUUCGGCGAAACCUAAGCGCCCGCCCGGGCGUAUGGCAACGCGGAGCCAAGCUUCGGCGCCUGCGCCGAUGCAGGUGUAGGGACUAGACGGCACCCACCUAAGGCGAACGGUAUGGUGAAGGCAUAGUCCAGGGAGGGGCGAAAGUCACACAAACCGG: 0.00597. Next, GUGCCUUGCGCCGGGAAACCACGCAAGGGAUGGUGUCAAAUUCGGCGAAACCUAAGCGCCCGCCCGGGCGUAUGGCAACGCGGAGCCAAGCUUCGGCGCCUGCGCCGAUGCAGGUGUAGGGACUAGACGGCACCCACCUAAGGCGAACGUUAUGGUGAAGGCAUAGUCCAGGGAGUGGCGAAAGUCACACAAACCGG: 0.0132. Next, GUGCCUUGCGCCGGGAAACCACGCAAGGGAUGGUGUCAAAUUCGGCGAAACCUAAGCGCCCGCCCGGGCGUAUGGCAACGCGGAGCCAAGCUUCGGCGCCUGCGCCGAUGCAGGUGUAGGGACUAGACGGCACCCACCUAAGGCGAACGGUAUGGUGAAGGCAUAGUCCAGGGAGUGGCGAAAGUCACACAAACCGG: 0.00751.

Turning to GUGCCUUGCGCCGGGAAACCACGCAAGGGAUGGUGUCAAAUUCGGCGAAACCUAAGCGCCCGCCCGGGCGUAUGGCAACGCGGAGCCAAGCUUCGGCGCCUGCGCCGAUGCAGGUGUAGGGACUAGACGGCACCCACCUAAGGCGAACGGUAUGGUGAAGGCAUAGUCUAGGGAGGGGCGAAAGUCACACAAACCGG, the reverse-splicing fitness was 0.00731. Regarding GUGCCUUGCGCCGGGAAACCACGCAAGGGAUGGUGUCAAAUUCGGCGAAACCUAAGCGCCCGCCCGGGCGUAUGGCAACGCGGAGCCAAGCUUCGGCGCCUGCGCCGAUGCAGGUGUAGGGACUAGACGGCACCCACCUAAGGCGAACGGUAUGGUGAAGGCAUAGUCUAGGGAGCGGCGAAAGUCACACAAACCGG, the reverse-splicing fitness stood at 0.0127. Next, GUGCCUUGCGCCGGGAAACCACGCAAGGGAUGGUGUCAAAUUCGGCGAAACCUAAGCGCCCGCCCGGGCGUAUGGCAACGCGGAGCCAAGCUUCGGCGCCUGCGCCGAUGCAGGUGUAGGGACUAGACGGCACCCACCUAAGGCGAACGGUAUGGUGAAGGCAUAGUCUAGGGAGAGGCGAAAGUCACACAAACCGG: 0.0106.
